A short description of series [1]: TLC analysis of hydrolysis products. The class given is biochemical. Particulars: pH 5.6, 50° C. An excerpt: FIG. 7 depicts the result of thin layer chromatography TLC analysis of products of CMC hydrolyzed by endoglucanases derived from a rumial genomic DNA library. The methods used for cellulase and substrate preparation, hydrolysis, TLC, and visualization are described in Example 5. The hydrolysis products glucose, cellobiose, cellotriose are shown an the right side. […] Different pattern was found when using short-chain beta-1,4-glucans.
The products formed by hydrolysis of cellulose-based substrates (cellobiose, cellotetraose, cellopentaose, cellulose and carboxymethyl cellulose) were analysed by thin-layer chromatography (TLC). Solutions containing 20 μg of E. coli cell lysate proteins and 0.2% (wt/vol) substrate in 50 mM acetate buffer (pH 5.6) were incubated at 50° C. until maximum conversion was achieved. The reactions were terminated by heating the preparation for 5 min at 95° C. and hydrolysis products were separated by TLC on silica gel plates (Merck, Darmstadt, Germany) by using a mixture chloroform, glacial acetic acid, and water (6:14:1) as the solvent. […] Sugars were visualized by heating 105° C. for 15 min the plates which were previously sprayed with a reagent containing amine (2 ml), diphenylamine (2 g), acetone (100 ml) and 85% H3PO4 (15 ml).

The nature of series [2]: Specific activity of purified endoglucanases. The format is biochemical. The note with it: purified to homogeneity; pH 5.6 and 50° C.; CMC as substrate. Here is the method: FIG. 2 represents Table 2 which contains the data obtained by purification of endoglucanases of seven clones (pBKRR.1, 9, 11, 13, 14, 16 and 22) with respect to the specific activity. […] They were purified to homogeneity and their specific activity was estimated at pH 5.6 and 50° C., using CMC as substrate.
The endoglucanases were recovered from 1-liter shaked flask fermentations, in Luria-Bertany broth plus 50 μg of Kanamycin per ml. One gram of fermentation broth was mixed with 10 ml of standard buffer in a 50-ml Falcon tube. The solution was vortexed and then incubated with DNase I grade II, for 30-45 min, and then sonicated for 4 min total time. A sample of the soluble fraction was separated from insoluble debris by centrifugation (10,000×g, 30 min, 4° C.) and proteins were precipitated by addition of 80% chilled acetone (−20° C.). Proteins were resuspended in standard buffer and stored at −20° C. at a concentration of 5 mg/ml until use. The amount of protein expression was examined using SDS-PAGE with 10-12% acrylamide. […] The gel region containing the active cellulase, detected in a parallel track by activity staining (using Ostazin brillian-blue carboxymethyl cellulose) was excised, suspended in two volumes of standard fuffer and homogenized in a glass tissue homogenizer. […]
The standard cellulase activity was determined in a continuous spectrophotometric assay by measuring the release of reducing sugars from the 4% (wt/vol carboxymethyl cellulose (CMC) in 0.5-ml reaction mixtures containing 50 mM sodium acetate buffer, pH 5.6, at 40° C., using the dinitrosalycilic acid (DNS) method (Bernfeld, P. (1955) Amilases and b. In: Colowick S P, Kaplan N O (eds). Methods in Enzymology, Academic Press, New York pp. 133-155). The reaction was performed in 0.5 ml scale containing 20 mg substrate and 5 mg lyophilised cells or 0.1 mg purified enzyme. Reactions were allow to proceed for a time period of 5-30 min after which the samples were centrifuge (10,000×g, 3 min). […] Finally, each well was diluted with 150 μl water and the absorbance at 550 nm was measured. […]

B1: pBKRR.14: rumen endoglucanase, sequences FIG. 16/24; also capable of hydrolyzing xylan (protein)
chain: MINVLQHHPEVELSVDKTSVSFNRSGGEETFTVTSSTQPHVSADVSWVVVETGKIDKDHHTEVRVLAGANRKEASAGTLTVSCSDKKVSVSVKQEAFVAPSVASTTAVTPQMVFDAMGPGWNMGNHMDAISNGVSGETVWGNPKCTQATMDGVKAAGYKAVRICTTWEGHIGAAPAYALEQKWLDRVAEIVGYAEKAGLVAIVNTHHDESYWQDISKCYNNAANHEKVKDEVFSVWTQIAEKFKDKGEWLVFESFNEIQDGGWGWSDAFRKNPDAQYKVLNEWNQTFVDAVRSTGGQNATRWLGIPGYACNPGFTIAGLVLPKDYTTANRLMVAVHDYDPYDYTLKDPLIRQWGHTADADKRPSGDNEKAVVDVFNNLKAAYLDKGIPVYLGEMGCSRHTAADFPYQKYYMEYFCKAAADRLLPMYLWDNGAKGVGSERHAYIDHGTGQFVDEDARTLVGLMVKAVTTKDASYTLESVYNSAP
modifications: Description of sequence sequence derived from genomic DNA library from rumen ecosystem, particularly amino acid sequence of clones pBKRR 14 and 20-1; RR14=RR20-1;(see Figure 24)
notes: also capable of hydrolyzing xylan
Take B1: in series [1], the “main hydrolysis products of CMC” value is “cellobiose and cellotriose”. The molecule further displayed a specific activity in series [2] of 34.60 µmol/min/mg.

B2: pBKRR.22: rumen endo-beta-1,4-glucanase, sequences FIG. 11/19 (protein)
chain: MLLASFSLFSCGGSDGDDSTPTPSVSLQLVSQSIAEGAQVDAASTTVLTLNYNNPVRVTGNGVTLNGIAVKAKVSGNTSVEIPLTLVEGTVYTLKVAWGAIVAAADGKVVAPEFTLNFTTKGNQQPPIDENSPIAKKMGWGWNLGNHFDTSSGADGVRPQWGYWDNAKPTQVLYNNLRNAGTSTVRIGVTWGNYQNTSNWDIDANYIAEVRQNVEWAEAAGLNVILNMHHDEYWLDIKGAANNSSTNTNIKNRIEKTWKQIAEAFKDKGEFLIFESFNEIQDGGWGWGANRTDGGKQYKTLNEWNQLVVNTIRATGGNNATRWIGIPSYAANPSLALETGFVLPTDAANRLMVSVHFYDPSNFTLSPYVSDDSSEYKSGGYSEWGHTAAKGKADTGSNEDHVVAIFKKLHDKFVAKNIPVYIGEYGCVMHKNTRSNYFRNYYLEYVCRAAHEYGMPLCIWDNNQTGGGNEHHGYFNHTDGQYLNAMESLVKTMIKAATSDDASYTLESVYNKAPK
modifications: Description of sequence sequence derived from genomic DNA library from rumen ecosystem, particularly amino acid sequence of clones pBKRR 22, 6, 8 and 23;(see Figure 19)
Consider B2, for which the “main hydrolysis products of CMC” value in series [1] is “cellobiose and cellotriose”. The molecule also showed a specific activity in series [2] of 68.30 µmol/min/mg.

These data come from patent US20080261267A1, “Cellulases from Rumen” (priority 2004, published 2008).
